Laboratory results published in patent US20250340636A1 (Memorial Sloan Kettering, published 2025).

Assays:
[1] = biological target: T1, soluble mouse L1CAM (monomer), His-tagged (mouse, UniProt P11627 20-1123, limits assumed); experiment: BLI, mouse against human L1CAM-His
T1 construct: read as mouse
Description: (§1) Cross-reactivity to Mouse L1CAM. Affinity to mouse L1CAM was measured by BLI using an Octet Red96e instrument. […] The data was prepared by reference well subtraction, and response curves were globally fit to a 1:1 Langmuir binding model.

[2] = biological target: T2, extracellular domain of human L1CAM (isoform 1) fused to a poly-histidine tag via its carboxy terminus (human, UniProt P32004 20-1120); experiment: summary table; binding to soluble human L1CAM (monomer)
T2 construct: Bought (Creative Biomart); also called L1CAM-His; huL1CAM protein
Description: Binding to L1CAM in Solution. Affinity to human L1CAM was measured by BLI using an Octet Red96e instrument. […] The data was prepared by reference well subtraction, and response curves were globally fit to a 1:1 Langmuir binding model.

human L1CAM on cells [3] = biological target: T3, human L1CAM on cells (human, UniProt P32004 20-1257); experiment: summary table; binding to cells with endogenous L1CAM (MCF-7)
T3 construct: Overexpressed on stably transfected HEK293T cells or endogenous on MCF-7 and MDA-MB-231 cells; also called HEK293T-hL1CAM
Description: (§2) Binding to L1CAM on Cells. […] Cells were then incubated with an AlexaFluor 647 goat anti-human Fc secondary antibody. After washing, the stained cells were analyzed by flow cytometry.
(§3) The binding curves for each antibody and cell line normalized to secondary antibody only staining (MFI ratio) are shown in FIGS. 14A-14C. EC50 values were determined by non-linear regression (Table 70). […] It is possible that differences in the conformation and oligomerization of L1CAM, depending on the surface expression level, contributed to the binding pattern. […] An avidity effect due to high levels of L1CAM surface expression may have contributed to the strong binding observed in this experiment.

human L1CAM on cells [4] = biological target: T3, human L1CAM on cells; experiment: summary table; binding to cells with endogenous L1CAM (MDA-MB-231)
Description: as §2, §3

human L1CAM on cells [5] = biological target: T3, human L1CAM on cells; experiment: summary table; binding to cells overexpressing human L1CAM (HEK293T)
Description: as §2, §3

[6] = biological target: T1, soluble mouse L1CAM (monomer), …; experiment: BLI (Octet Red96e), His-tagged mouse L1CAM on Ni-NTA biosensors, mAb as analyte, 1:1 fit
Description: as §1

[7] = biological target: T4, mouse L1CAM on transiently transfected HEK293FT cells (mouse, UniProt P11627 20-1260); experiment: flow cytometry, HEK293FT cells transiently transfected with mouse L1CAM (data not shown)
T4 construct: whole, on cells; also called mouse L1CAM on cells

[8] = biological target: T5, soluble cynomolgus monkey L1CAM, His-tagged, monomeric (cynomolgus monkey, UniProt A0A2K5URB5 20-1120); experiment: BLI (Octet Red96e), His-tagged cynomolgus L1CAM on Ni-NTA biosensors, mAb as analyte, 1:1 fit
T5 construct: also called cyL1CAM protein; cynomolgus L1CAM-His
Description: Cross-reactivity to Cynomolgus Monkey L1CAM. Affinity to cynomolgus L1CAM was measured by BLI using an Octet Red96e instrument. […] The data was prepared by reference well subtraction, and response curves were globally fit to a 1:1 Langmuir binding model.

T2 sequence (P32004 20-1120): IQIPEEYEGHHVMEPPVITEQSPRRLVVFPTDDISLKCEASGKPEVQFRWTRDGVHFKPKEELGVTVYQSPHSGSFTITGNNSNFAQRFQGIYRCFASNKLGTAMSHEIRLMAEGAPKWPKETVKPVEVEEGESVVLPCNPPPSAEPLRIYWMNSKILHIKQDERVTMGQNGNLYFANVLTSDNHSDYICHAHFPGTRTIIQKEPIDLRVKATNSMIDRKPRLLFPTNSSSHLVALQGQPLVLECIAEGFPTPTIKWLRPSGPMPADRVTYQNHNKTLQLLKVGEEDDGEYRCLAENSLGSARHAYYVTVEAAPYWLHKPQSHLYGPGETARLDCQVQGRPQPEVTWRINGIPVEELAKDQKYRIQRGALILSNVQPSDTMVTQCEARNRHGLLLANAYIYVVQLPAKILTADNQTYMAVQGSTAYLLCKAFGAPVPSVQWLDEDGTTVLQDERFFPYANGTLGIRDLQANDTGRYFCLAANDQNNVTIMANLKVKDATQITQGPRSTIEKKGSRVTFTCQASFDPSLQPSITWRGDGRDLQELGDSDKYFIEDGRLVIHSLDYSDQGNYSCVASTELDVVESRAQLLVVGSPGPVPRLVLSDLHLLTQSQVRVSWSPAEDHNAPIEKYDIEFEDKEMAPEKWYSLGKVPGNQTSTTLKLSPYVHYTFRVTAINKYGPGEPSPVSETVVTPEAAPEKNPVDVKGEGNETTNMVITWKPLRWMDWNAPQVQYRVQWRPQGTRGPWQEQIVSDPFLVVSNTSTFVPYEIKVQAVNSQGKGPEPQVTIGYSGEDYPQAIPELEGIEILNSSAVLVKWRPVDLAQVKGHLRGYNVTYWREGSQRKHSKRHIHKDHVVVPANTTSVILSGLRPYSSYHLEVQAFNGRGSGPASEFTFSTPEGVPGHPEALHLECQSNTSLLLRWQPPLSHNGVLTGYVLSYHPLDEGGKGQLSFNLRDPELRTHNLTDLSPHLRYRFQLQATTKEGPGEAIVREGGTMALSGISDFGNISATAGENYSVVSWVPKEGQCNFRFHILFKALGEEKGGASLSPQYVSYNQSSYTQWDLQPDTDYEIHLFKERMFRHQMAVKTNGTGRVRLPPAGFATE
T1 sequence (P11627 20-1123 limits assumed): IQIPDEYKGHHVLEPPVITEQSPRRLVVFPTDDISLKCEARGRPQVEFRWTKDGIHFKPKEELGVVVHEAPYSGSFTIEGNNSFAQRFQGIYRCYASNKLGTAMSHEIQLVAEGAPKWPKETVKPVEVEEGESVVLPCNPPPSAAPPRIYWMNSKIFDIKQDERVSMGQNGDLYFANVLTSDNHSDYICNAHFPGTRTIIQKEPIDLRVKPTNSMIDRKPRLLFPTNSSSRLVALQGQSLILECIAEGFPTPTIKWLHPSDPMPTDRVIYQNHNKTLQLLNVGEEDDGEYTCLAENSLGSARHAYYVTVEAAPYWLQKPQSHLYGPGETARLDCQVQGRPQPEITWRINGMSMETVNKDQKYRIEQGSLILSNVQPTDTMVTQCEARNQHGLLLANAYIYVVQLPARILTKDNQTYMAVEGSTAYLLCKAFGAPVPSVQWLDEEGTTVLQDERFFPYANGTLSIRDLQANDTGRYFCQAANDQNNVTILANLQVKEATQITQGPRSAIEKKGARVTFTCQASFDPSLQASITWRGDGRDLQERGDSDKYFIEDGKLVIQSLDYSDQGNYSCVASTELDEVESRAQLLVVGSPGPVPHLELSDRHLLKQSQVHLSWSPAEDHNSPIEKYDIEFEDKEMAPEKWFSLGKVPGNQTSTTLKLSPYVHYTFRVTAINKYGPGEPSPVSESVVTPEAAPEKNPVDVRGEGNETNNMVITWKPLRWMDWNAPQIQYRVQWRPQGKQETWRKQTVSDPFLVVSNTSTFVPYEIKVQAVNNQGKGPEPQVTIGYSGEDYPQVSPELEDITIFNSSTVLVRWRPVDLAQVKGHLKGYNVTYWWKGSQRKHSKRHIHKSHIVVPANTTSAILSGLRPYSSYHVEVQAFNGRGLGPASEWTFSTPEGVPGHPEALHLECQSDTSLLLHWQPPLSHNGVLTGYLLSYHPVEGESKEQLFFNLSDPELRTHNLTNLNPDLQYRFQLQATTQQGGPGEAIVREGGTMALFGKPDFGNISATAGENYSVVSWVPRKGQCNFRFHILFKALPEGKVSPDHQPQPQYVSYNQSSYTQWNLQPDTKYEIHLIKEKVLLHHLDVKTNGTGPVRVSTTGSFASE
T3 sequence (P32004 20-1257): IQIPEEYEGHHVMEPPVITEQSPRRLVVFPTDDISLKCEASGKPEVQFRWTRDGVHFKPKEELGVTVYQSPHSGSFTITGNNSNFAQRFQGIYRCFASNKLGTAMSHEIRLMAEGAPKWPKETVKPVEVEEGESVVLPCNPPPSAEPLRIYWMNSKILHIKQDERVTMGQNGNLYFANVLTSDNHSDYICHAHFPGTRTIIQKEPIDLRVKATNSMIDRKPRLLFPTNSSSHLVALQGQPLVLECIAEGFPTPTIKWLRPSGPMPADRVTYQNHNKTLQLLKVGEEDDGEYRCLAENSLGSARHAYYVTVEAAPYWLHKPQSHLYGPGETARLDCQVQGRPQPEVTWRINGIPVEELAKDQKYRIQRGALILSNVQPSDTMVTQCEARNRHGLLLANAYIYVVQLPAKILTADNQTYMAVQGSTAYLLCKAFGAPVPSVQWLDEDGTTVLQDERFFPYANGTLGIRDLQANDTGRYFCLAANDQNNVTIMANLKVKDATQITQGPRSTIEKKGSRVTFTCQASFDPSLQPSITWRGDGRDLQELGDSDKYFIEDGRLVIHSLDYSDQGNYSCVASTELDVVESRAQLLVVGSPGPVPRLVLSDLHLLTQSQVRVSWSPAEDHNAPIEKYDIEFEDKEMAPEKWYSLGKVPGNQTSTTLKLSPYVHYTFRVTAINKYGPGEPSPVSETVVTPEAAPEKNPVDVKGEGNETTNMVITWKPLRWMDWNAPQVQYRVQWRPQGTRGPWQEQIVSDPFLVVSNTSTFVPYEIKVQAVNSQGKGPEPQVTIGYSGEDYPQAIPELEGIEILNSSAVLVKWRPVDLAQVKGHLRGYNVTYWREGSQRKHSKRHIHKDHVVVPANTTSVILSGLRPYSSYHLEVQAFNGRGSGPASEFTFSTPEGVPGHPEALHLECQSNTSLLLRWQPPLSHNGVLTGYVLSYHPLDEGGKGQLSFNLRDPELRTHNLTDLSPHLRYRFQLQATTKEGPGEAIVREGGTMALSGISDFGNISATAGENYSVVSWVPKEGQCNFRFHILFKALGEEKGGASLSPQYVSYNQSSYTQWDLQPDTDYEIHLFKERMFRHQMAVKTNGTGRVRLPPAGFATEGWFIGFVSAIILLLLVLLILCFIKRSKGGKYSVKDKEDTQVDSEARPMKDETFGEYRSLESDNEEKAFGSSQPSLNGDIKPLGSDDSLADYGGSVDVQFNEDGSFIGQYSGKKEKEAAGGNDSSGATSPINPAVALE
T4 sequence (P11627 20-1260): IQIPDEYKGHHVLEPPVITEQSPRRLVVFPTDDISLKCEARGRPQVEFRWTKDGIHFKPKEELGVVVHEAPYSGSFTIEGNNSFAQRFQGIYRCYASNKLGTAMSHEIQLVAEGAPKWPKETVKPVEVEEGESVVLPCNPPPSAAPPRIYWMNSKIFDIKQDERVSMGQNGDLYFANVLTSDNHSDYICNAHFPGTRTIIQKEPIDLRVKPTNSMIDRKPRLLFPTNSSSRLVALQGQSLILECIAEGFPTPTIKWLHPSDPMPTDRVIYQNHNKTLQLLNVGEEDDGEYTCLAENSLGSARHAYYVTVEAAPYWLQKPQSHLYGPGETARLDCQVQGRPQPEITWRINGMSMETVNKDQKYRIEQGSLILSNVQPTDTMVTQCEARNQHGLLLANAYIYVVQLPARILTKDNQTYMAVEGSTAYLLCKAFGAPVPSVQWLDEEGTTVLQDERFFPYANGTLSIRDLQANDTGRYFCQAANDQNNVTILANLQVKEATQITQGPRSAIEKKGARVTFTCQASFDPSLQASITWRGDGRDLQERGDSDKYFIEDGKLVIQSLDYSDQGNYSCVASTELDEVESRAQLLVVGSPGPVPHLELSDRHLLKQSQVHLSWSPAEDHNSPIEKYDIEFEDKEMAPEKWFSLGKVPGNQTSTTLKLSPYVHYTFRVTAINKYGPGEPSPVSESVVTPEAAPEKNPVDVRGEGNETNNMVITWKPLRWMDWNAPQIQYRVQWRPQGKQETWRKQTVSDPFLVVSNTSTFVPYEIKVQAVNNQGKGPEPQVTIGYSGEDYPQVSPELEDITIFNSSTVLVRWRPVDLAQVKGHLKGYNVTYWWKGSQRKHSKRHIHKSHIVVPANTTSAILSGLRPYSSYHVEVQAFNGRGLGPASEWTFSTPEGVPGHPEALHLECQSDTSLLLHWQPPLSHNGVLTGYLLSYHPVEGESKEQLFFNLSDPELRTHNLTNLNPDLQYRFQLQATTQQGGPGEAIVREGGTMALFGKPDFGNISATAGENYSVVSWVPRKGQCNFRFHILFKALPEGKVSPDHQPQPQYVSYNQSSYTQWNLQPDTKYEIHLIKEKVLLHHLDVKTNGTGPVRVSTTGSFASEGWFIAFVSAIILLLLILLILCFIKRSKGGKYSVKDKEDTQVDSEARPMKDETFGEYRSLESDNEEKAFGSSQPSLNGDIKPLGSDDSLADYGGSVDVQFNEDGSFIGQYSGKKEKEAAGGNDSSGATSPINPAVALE

B1: TDI-Y-005 (antibody, human IgG1, kappa, V domains shown)
VH: EVQMVESGGGLVQPGGSLRLSCAAPGFIFSSYNMNWVRQAPGKGLEWVSYISSSSSTTYYADSVKGRFTISRDNAKNSLYLQMNSLRDEDTAVYYCASLYSGYDYYYYYGMDVWGQGTTVTVSS
VL: DIVMTQTPLSSPVSLGQPASISCRSSQSLVHSDGNTYLSWLQQRPGQPPRVLIYKISKRFSGVPDRFSGSGAGTDFTLKISRVEAEDVGVYYCMQATQFPFTFGPGTKVDIKR
notes: Human IgG1, kappa; also called human 14A10 mAb; fully human 14A10 mAb
fold difference of KD against human L1CAM [1]: ≤ 8 fold | Kd [2]: 4.3 nM | koff [2]: 0.00014 s⁻¹ | kon [2]: 33000 M⁻¹ s⁻¹ | EC50 (human L1CAM on cells [3]): 2.5 nM | EC50 (human L1CAM on cells [4]): 7.1 nM | EC50 (human L1CAM on cells [5]): 2 nM | Kd [6]: 34 nM | koff [6]: 0.0011 s⁻¹ | kon [6]: 31000 M⁻¹ s⁻¹ | EC50 [7]: 0.9 nM | Kd [8]: 1.3 nM | koff [8]: 0.00012 s⁻¹ | kon [8]: 93000 M⁻¹ s⁻¹
